Paper PMC9628034

Target: apolipoprotein E, apoE4 isoform, of human cerebrospinal fluid (human (endogenous in CSF)) (UniProt P02649)
Test: native gel or EMSA; blue-native PAGE 4-16% of unheated AD CSF; western blot with AB178479; dimer/monomer quotient from band intensities

ratio D/M (apoE dimer/monomer quotient): 0.24
Substance: apolipoprotein E, apoE4 isoform, of human cerebrospinal fluid (from UniProt P02649 19-317) (natural protein)
